From US20260193293A1, “PEPTIDES CAPABLE OF INHIBITING PROTEIN-PROTEIN INTERACTIONS AT GABAB1A SUBUNIT AND USES THEREOF” (UNIVERSITY OF COPENHAGEN, priority 2022, published 2026)
Non-standard residues stand in square brackets, D forms with d. NMeW = CN[C@@H](Cc1c[nH]c2ccccc12)C(=O)O; Cya = N[C@@H](CS(=O)(=O)O)C(=O)O; NMeT = CN[C@H](C(=O)O)[C@@H](C)O; NMeE = CN[C@@H](CCC(=O)O)C(=O)O; NMeD = CN[C@@H](CC(=O)O)C(=O)O; NMeV = CN[C@H](C(=O)O)C(C)C; NMeS = CN[C@@H](CO)C(=O)O; NMeA = CN[C@@H](C)C(=O)O; Sar = CNCC(=O)O

Molecular target: Sushi domains (SD1/2) protein of the GABAB1a (GB1a) subunit, recombinant
Assay: FP competition

Sequence of Sushi domains (SD1/2) protein of the GABAB1a (GB1a) subunit, recombinant (Q9Z0U4 29-158): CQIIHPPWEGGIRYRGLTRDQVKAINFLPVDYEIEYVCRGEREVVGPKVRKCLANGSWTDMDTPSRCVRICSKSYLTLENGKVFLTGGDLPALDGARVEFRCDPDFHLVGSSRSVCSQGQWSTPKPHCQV

Row | Binder | Ki [nM] | fold improved affinity relative to the wild type (AJAP-1WT) [fold]
1 | Ac-ED[dD]SDVWWGGADTD-NH2 [EDd…] | 736 | –
2 | Ac-EDDSDVWW[dA]GADTD-NH2 [EDDSDVWWaGADTD] | 8700 | –
3 | Ac-EDD[dS]DVWWGGADTD-NH2 [EDDs…] | 752 | –
4 | Ac-EDDS[dD]VWWGGADTD-NH2 [EDDSd…] | 1630 | –
5 | Ac-EDDSD[NMeV]WWGGADTD-NH2 (SMILES CC(=O)N[C@@H](CCC(=O)O)C(=O)N[C@@H](CC(=O)O)C(=O)N[C@@H](CC(=O)O)C(=O)N[C@@H](CO)C(=O)N[C@@H](CC(=O)O)C(=O)N(C)[C@H](C(=O)N[C@@H](Cc1c[nH]c2ccccc12)C(=O)N[C@@H](Cc1c[nH]c2ccccc12)C(=O)NCC(=O)NCC(=O)N[C@@H](C)C(=O)N[C@@H](CC(=O)O)C(=O)N[C@H](C(=O)N[C@@H](CC(=O)O)C(N)=O)[C@@H](C)O)C(C)C) [EDDSD(N-Me-V)WWGGADTD] | 12300 | –
6 | Ac-EDDSDVW[NMeW]GGADTD-NH2 (SMILES CC(=O)N[C@@H](CCC(=O)O)C(=O)N[C@@H](CC(=O)O)C(=O)N[C@@H](CC(=O)O)C(=O)N[C@@H](CO)C(=O)N[C@@H](CC(=O)O)C(=O)N[C@H](C(=O)N[C@@H](Cc1c[nH]c2ccccc12)C(=O)N(C)[C@@H](Cc1c[nH]c2ccccc12)C(=O)NCC(=O)NCC(=O)N[C@@H](C)C(=O)N[C@@H](CC(=O)O)C(=O)N[C@H](C(=O)N[C@@H](CC(=O)O)C(N)=O)[C@@H](C)O)C(C)C) [EDDSDVW(N-Me-W)GGADTD] | 1380 | –
7 | Ac-EDDSDVWWG[dA]ADTD-NH2 […aADTD] | 1210 | –
8 | Ac-EDDSDVWWGGADTA-NH2 | 786 | –
9 | Ac-EDDSDVWW[Sar]GADTD-NH2 (SMILES CC(=O)N[C@@H](CCC(=O)O)C(=O)N[C@@H](CC(=O)O)C(=O)N[C@@H](CC(=O)O)C(=O)N[C@@H](CO)C(=O)N[C@@H](CC(=O)O)C(=O)N[C@H](C(=O)N[C@@H](Cc1c[nH]c2ccccc12)C(=O)N[C@@H](Cc1c[nH]c2ccccc12)C(=O)N(C)CC(=O)NCC(=O)N[C@@H](C)C(=O)N[C@@H](CC(=O)O)C(=O)N[C@H](C(=O)N[C@@H](CC(=O)O)C(N)=O)[C@@H](C)O)C(C)C) [EDDSDVWW(N-Me-G)GADTD] | 18900 | –
10 | Ac-EDDSDVWWGG[dA]DTD-NH2 […aDTD] | 755 | –
11 | Ac-ETEFIDWGPTGDED-NH2 [peptide 26 (Ac-…-NH2, AJAP-1WT mutant A182D)] | – | 3
12 | Ac-EDD[NMeS]DVWWGGADTD-NH2 (SMILES CC(=O)N[C@@H](CCC(=O)O)C(=O)N[C@@H](CC(=O)O)C(=O)N[C@@H](CC(=O)O)C(=O)N(C)[C@@H](CO)C(=O)N[C@@H](CC(=O)O)C(=O)N[C@H](C(=O)N[C@@H](Cc1c[nH]c2ccccc12)C(=O)N[C@@H](Cc1c[nH]c2ccccc12)C(=O)NCC(=O)NCC(=O)N[C@@H](C)C(=O)N[C@@H](CC(=O)O)C(=O)N[C@H](C(=O)N[C@@H](CC(=O)O)C(N)=O)[C@@H](C)O)C(C)C) [EDD(N-Me-S)…] | 1670 | –
13 | Ac-EDDSDV[NMeW]WGGADTD-NH2 (SMILES CC(=O)N[C@@H](CCC(=O)O)C(=O)N[C@@H](CC(=O)O)C(=O)N[C@@H](CC(=O)O)C(=O)N[C@@H](CO)C(=O)N[C@@H](CC(=O)O)C(=O)N[C@H](C(=O)N(C)[C@@H](Cc1c[nH]c2ccccc12)C(=O)N[C@@H](Cc1c[nH]c2ccccc12)C(=O)NCC(=O)NCC(=O)N[C@@H](C)C(=O)N[C@@H](CC(=O)O)C(=O)N[C@H](C(=O)N[C@@H](CC(=O)O)C(N)=O)[C@@H](C)O)C(C)C) [EDDSDV(N-Me-W)WGGADTD] | 85600 | –
14 | Ac-EDDS[NMeD]VWWGGADTD-NH2 (SMILES CC(=O)N[C@@H](CCC(=O)O)C(=O)N[C@@H](CC(=O)O)C(=O)N[C@@H](CC(=O)O)C(=O)N[C@@H](CO)C(=O)N(C)[C@@H](CC(=O)O)C(=O)N[C@H](C(=O)N[C@@H](Cc1c[nH]c2ccccc12)C(=O)N[C@@H](Cc1c[nH]c2ccccc12)C(=O)NCC(=O)NCC(=O)N[C@@H](C)C(=O)N[C@@H](CC(=O)O)C(=O)N[C@H](C(=O)N[C@@H](CC(=O)O)C(N)=O)[C@@H](C)O)C(C)C) [EDDS(N-Me-D)…] | 3760 | –

Further lines, results first:

Row | Ki [nM] | fold improved affinity relative to the wild type (AJAP-1WT) [fold] | Binder
15 | 670 | – | Ac-[NMeE]DDSDVWWGGADTD-NH2 (SMILES CC(=O)N(C)[C@@H](CCC(=O)O)C(=O)N[C@@H](CC(=O)O)C(=O)N[C@@H](CC(=O)O)C(=O)N[C@@H](CO)C(=O)N[C@@H](CC(=O)O)C(=O)N[C@H](C(=O)N[C@@H](Cc1c[nH]c2ccccc12)C(=O)N[C@@H](Cc1c[nH]c2ccccc12)C(=O)NCC(=O)NCC(=O)N[C@@H](C)C(=O)N[C@@H](CC(=O)O)C(=O)N[C@H](C(=O)N[C@@H](CC(=O)O)C(N)=O)[C@@H](C)O)C(C)C) [(N-Me-E)…]
16 | 480 | – | Ac-EDDSDVWWGGADAD-NH2
17 | 655 | – | Ac-E[NMeD]DSDVWWGGADTD-NH2 (SMILES CC(=O)N[C@@H](CCC(=O)O)C(=O)N(C)[C@@H](CC(=O)O)C(=O)N[C@@H](CC(=O)O)C(=O)N[C@@H](CO)C(=O)N[C@@H](CC(=O)O)C(=O)N[C@H](C(=O)N[C@@H](Cc1c[nH]c2ccccc12)C(=O)N[C@@H](Cc1c[nH]c2ccccc12)C(=O)NCC(=O)NCC(=O)N[C@@H](C)C(=O)N[C@@H](CC(=O)O)C(=O)N[C@H](C(=O)N[C@@H](CC(=O)O)C(N)=O)[C@@H](C)O)C(C)C) [E(N-Me-D)…]
18 | 671 | – | Ac-ED[NMeD]SDVWWGGADTD-NH2 (SMILES CC(=O)N[C@@H](CCC(=O)O)C(=O)N[C@@H](CC(=O)O)C(=O)N(C)[C@@H](CC(=O)O)C(=O)N[C@@H](CO)C(=O)N[C@@H](CC(=O)O)C(=O)N[C@H](C(=O)N[C@@H](Cc1c[nH]c2ccccc12)C(=O)N[C@@H](Cc1c[nH]c2ccccc12)C(=O)NCC(=O)NCC(=O)N[C@@H](C)C(=O)N[C@@H](CC(=O)O)C(=O)N[C@H](C(=O)N[C@@H](CC(=O)O)C(N)=O)[C@@H](C)O)C(C)C) [ED(N-Me-D)…]
19 | 704 | – | Ac-EDDSDVWWGG[NMeA]DTD-NH2 (SMILES CC(=O)N[C@@H](CCC(=O)O)C(=O)N[C@@H](CC(=O)O)C(=O)N[C@@H](CC(=O)O)C(=O)N[C@@H](CO)C(=O)N[C@@H](CC(=O)O)C(=O)N[C@H](C(=O)N[C@@H](Cc1c[nH]c2ccccc12)C(=O)N[C@@H](Cc1c[nH]c2ccccc12)C(=O)NCC(=O)NCC(=O)N(C)[C@@H](C)C(=O)N[C@@H](CC(=O)O)C(=O)N[C@H](C(=O)N[C@@H](CC(=O)O)C(N)=O)[C@@H](C)O)C(C)C) […(N-Me-A)DTD]
20 | 11.8 | – | Ac-ETEFI[Cya]WGPTGDED-NH2 (SMILES CC[C@H](C)[C@H](NC(=O)[C@H](Cc1ccccc1)NC(=O)[C@H](CCC(=O)O)NC(=O)[C@@H](NC(=O)[C@H](CCC(=O)O)NC(C)=O)[C@@H](C)O)C(=O)N[C@@H](CS(=O)(=O)O)C(=O)N[C@@H](Cc1c[nH]c2ccccc12)C(=O)NCC(=O)N1CCC[C@H]1C(=O)N[C@H](C(=O)NCC(=O)N[C@@H](CC(=O)O)C(=O)N[C@@H](CCC(=O)O)C(=O)N[C@@H](CC(=O)O)C(N)=O)[C@@H](C)O) [Ac-ETEFI(Cya)WGPTGDED-NH2 (AJAP-1WT mutant Ala182Cya)]
21 | 567 | – | Ac-E[dD]DSDVWWGGADTD-NH2 [Ed…]
22 | 483 | – | Ac-[dE]DDSDVWWGGADTD-NH2 (SMILES CC(=O)N[C@H](CCC(=O)O)C(=O)N[C@@H](CC(=O)O)C(=O)N[C@@H](CC(=O)O)C(=O)N[C@@H](CO)C(=O)N[C@@H](CC(=O)O)C(=O)N[C@H](C(=O)N[C@@H](Cc1c[nH]c2ccccc12)C(=O)N[C@@H](Cc1c[nH]c2ccccc12)C(=O)NCC(=O)NCC(=O)N[C@@H](C)C(=O)N[C@@H](CC(=O)O)C(=O)N[C@H](C(=O)N[C@@H](CC(=O)O)C(N)=O)[C@@H](C)O)C(C)C) [e…]
23 | 503 | – | Ac-EDDSDVWWGGAD[NMeT]D-NH2 (SMILES CC(=O)N[C@@H](CCC(=O)O)C(=O)N[C@@H](CC(=O)O)C(=O)N[C@@H](CC(=O)O)C(=O)N[C@@H](CO)C(=O)N[C@@H](CC(=O)O)C(=O)N[C@H](C(=O)N[C@@H](Cc1c[nH]c2ccccc12)C(=O)N[C@@H](Cc1c[nH]c2ccccc12)C(=O)NCC(=O)NCC(=O)N[C@@H](C)C(=O)N[C@@H](CC(=O)O)C(=O)N(C)[C@H](C(=O)N[C@@H](CC(=O)O)C(N)=O)[C@@H](C)O)C(C)C) […(N-Me-T)D]
24 | 529 | – | Ac-EDDSDVWWGGADT[dD]-NH2 […d]
25 | 403 | – | Ac-EDDSDVWWGGA[NMeD]TD-NH2 (SMILES CC(=O)N[C@@H](CCC(=O)O)C(=O)N[C@@H](CC(=O)O)C(=O)N[C@@H](CC(=O)O)C(=O)N[C@@H](CO)C(=O)N[C@@H](CC(=O)O)C(=O)N[C@H](C(=O)N[C@@H](Cc1c[nH]c2ccccc12)C(=O)N[C@@H](Cc1c[nH]c2ccccc12)C(=O)NCC(=O)NCC(=O)N[C@@H](C)C(=O)N(C)[C@@H](CC(=O)O)C(=O)N[C@H](C(=O)N[C@@H](CC(=O)O)C(N)=O)[C@@H](C)O)C(C)C) […(N-Me-D)TD]
26 | 469 | – | Ac-EDDSDVWWGGAD[dT]D-NH2 […tD]
27 | 637 | – | Ac-EDDSDVWWGGA[dD]TD-NH2 […dTD]
